This is an account of results in US20140256918A1 (published 2014).

Assay [1] concerns the target C-terminal 6×His-tagged hCXCR5 whole receptor protein (human) (UniProt P32302). The assay is described as follows: SPR (Biacore), whole receptor captured and crosslinked on NTA chip at 700 RU, analyte injected; mean of triplicate. Background: In SPR one partner is held on a chip, and binding of the other changes the refractive index at the surface.
The target is the same in assay [2]. The assay is described as follows: SPR (Biacore), whole receptor captured and crosslinked on NTA chip at 300 RU, analyte injected; mean of triplicate.
Assay [3] has as its target hCXCR5 N-terminal peptide (human). The assay can be described thus: SPR (Biacore), conventional format: mAb captured by anti-mouse antibody on CM5 chip, peptide injected; mean.
For assay [4], the target named is biotinylated N-terminal hCXCR5 peptide (human). The assay can be described thus: SPR (Biacore), reversed format: biotinylated peptide on SA chip, mAb injected; mean.
Assay [5] has the same target. The assay can be described thus: SPR (Biacore), reversed format, biotinylated peptide on SA chip at 100 RU; mean.
Assay [6] shares this target. The assay is described as follows: SPR (Biacore), reversed format, biotinylated peptide on SA chip at 20 RU; mean.
The target is the same in assay [7]. The assay can be described thus: SPR (Biacore), reversed format, biotinylated peptide on SA chip at 5 RU; mean.
For assay [8], the target named is CD52 displayed on virus-like particles (CD52 VLP) (UniProt P31358). The assay can be described thus: SPR (Biacore), CD52 VLP captured by Campath and crosslinked on C1 chip, mAb injected.
The target is the same in assay [9]. The assay can be described thus: SPR (Biacore), CD52 VLP captured by Campath and crosslinked on C1 chip, mAb injected; second curve.
Assay [10] concerns the target T1, C-terminal 6×His-tagged hCXCR5 whole receptor protein (human, UniProt P32302 1-372, crosslinked on the chip with NHS/EDC after capture).
T1 construct: mature; Purified whole receptor (monomers, dimers and trimers on SDS-PAGE), captured on a Ni-NTA chip and stabilized by limited crosslinking; also called human CXCR5 receptor; 6×His-hCXCR5
T1 sequence: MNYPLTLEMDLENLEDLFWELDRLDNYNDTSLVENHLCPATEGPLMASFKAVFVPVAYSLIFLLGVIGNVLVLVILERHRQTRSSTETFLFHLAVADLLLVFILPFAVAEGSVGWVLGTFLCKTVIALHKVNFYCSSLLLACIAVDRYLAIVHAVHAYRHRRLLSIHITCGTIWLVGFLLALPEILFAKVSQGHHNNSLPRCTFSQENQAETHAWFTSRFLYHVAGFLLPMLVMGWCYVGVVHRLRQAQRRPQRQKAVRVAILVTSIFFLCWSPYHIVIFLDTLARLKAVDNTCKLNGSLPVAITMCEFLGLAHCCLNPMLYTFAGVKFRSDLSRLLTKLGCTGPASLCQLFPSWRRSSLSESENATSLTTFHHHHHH
The assay is described as follows: SPR (Biacore), whole receptor captured and crosslinked on NTA chip at 300 RU, analyte injected; mean of triplicate.
Experimental: For direct capturing by an NTA SPR sensor chip, the purified 6×His-hCXCR5 protein was diluted to 50 ug/ml with HBS—N (from GE) buffer. An NTA reagent kit (GE) was used for chip surface preparation. The flow rate was set to 5 ul/ml and HBS—N was used as the running buffer. […] In order to stabilize native-like structure of the receptor captured on the chip surface, the commonly used amine coupling reagent NHS/EDC was tested at different concentrations as shown in FIGS. 11 and 12.
In order to assess the impact of the avidity effect on this capture and stabilization method, chip surfaces with different receptor densities were prepared.

Assay [11] concerns the target T1, C-terminal 6×His-tagged hCXCR5 whole …. The assay is described as follows: SPR (Biacore), whole receptor captured and crosslinked on NTA chip at 700 RU, analyte injected; mean of triplicate.
For assay [12], the target named is biotinylated N-terminal hCXCR5 peptide (human). The assay can be described thus: SPR (Biacore), reversed format: biotinylated peptide on SA chip; the reference of the comparison is not named (by Table 2, the other two clones).
Assay [13] has the same target. The assay can be described thus: SPR (Biacore), reversed format, biotinylated peptide on SA chip at 100 RU; mean; affected by avidity and artificial Koff.
Assay [14] has the same target. The assay can be described thus: SPR (Biacore), reversed format, biotinylated peptide on SA chip at 100 RU; mean; called artificial, outside the Biacore accuracy limit.

Some results are limits rather than exact numbers.

Take mouse anti-hCXCR5 mAb MAB190 (antibody): the Kd worked out at 256 pM in assay [1]; 610 pM in assay [2]; 656 pM in assay [3]; 141 pM in [4]; 39.4 pM in assay [5]; 66.8 pM in assay [6]. In assay [7], this molecule registered a Kd of 164 pM. For the same molecule, the koff worked out at 0.000307 s⁻¹ in [1]; 0.000423 s⁻¹ in assay [2]; 0.00027 s⁻¹ in assay [3]; 0.000595 s⁻¹ in assay [4]; 0.000256 s⁻¹ in assay [5]; 0.000511 s⁻¹ in [6]. In [7], this molecule had a koff of 0.000711 s⁻¹. In addition, the kon turned out to be 1.2e+06 M⁻¹ s⁻¹ in assay [1]; 694000 M⁻¹ s⁻¹ in [2]; 408000 M⁻¹ s⁻¹ in assay [3]; 4.23e+06 M⁻¹ s⁻¹ in assay [4]; 6.5e+06 M⁻¹ s⁻¹ in assay [5]; 7.65e+06 M⁻¹ s⁻¹ in assay [6]. This molecule yielded a kon in assay [7] of 4.33e+06 M⁻¹ s⁻¹.
anti-CD52 mAb (Campath) (antibody): in assay [8], the Kd stood at 5750 pM, the koff was 0.00109 s⁻¹ and the kon is 189000 M⁻¹ s⁻¹. In assay [9], the Kd came out at 5810 pM, the koff stood at 0.000937 s⁻¹ and the on-rate constant (kon) worked out at 161000 M⁻¹ s⁻¹.

B1: CXCL13 (ligand, UniProt O43927 23-109, looked up)
chain: VLEVYYTSLRCRCVQESSVFIPRRFIDRIQILPRGNGCPRKEIIVWKKNKSIVCVDPQAEWIQRMMEVLRKRSSSTLPVPVFKRKIP
notes: also called hCXCR5 ligand
In assay [10], B1 showed a Kd of 1370 pM, an off-rate (koff) of 0.00718 s⁻¹ and a kon of 5.26e+06 M⁻¹ s⁻¹. In assay [11], this molecule showed a Kd of 891 pM, a koff of 0.00553 s⁻¹ and a kon of 6.25e+06 M⁻¹ s⁻¹.

B2: mouse anti-hCXCR5 mAb clone 16D7 (antibody, V domains shown)
VH: QVQLKESGPGLVAPSQSLSITCTVSGFSLIDYGVNWIRQPPGKGLEWLGVIWGDGTTYYNSALKSRLSIRKDNSQSQVFLKMNSLQTDDTAMYYCARIVYWGQGTLVTVSA
VL: DIVMTQAAPSVAVTPRESVSISCRSSKSLLHSSGKTYLYWFLQRPGQSPQLLIYRMSNLASGVPDRFSGSGSGTAFTLRISRVEAEDVGVYYCMQHLEYPYTFGGGTKLEIK
In [12], B2 registered a fold slower off-rate of more than 10 fold. In addition, the Kd in [3] worked out at 503 pM; in [4], 65 pM; in assay [10], 39.9 pM; in [6], 32.5 pM; in assay [13], 0.0974 pM; in [11], 39.6 pM. For the same molecule, the Kd in assay [7] came to 70.2 pM. Moreover, the off-rate constant (koff) in assay [3] is 0.000241 s⁻¹; in [4] it was 4.59e-05 s⁻¹; in assay [10] it was 9.62e-06 s⁻¹; in assay [6], 2.7e-05 s⁻¹; in assay [14], 9.85e-08 s⁻¹; in assay [11], 1.28e-05 s⁻¹. This molecule also showed a koff in assay [7] of 4.71e-05 s⁻¹. Moreover, the kon in assay [3] is 480000 M⁻¹ s⁻¹; in assay [4], 708000 M⁻¹ s⁻¹; in assay [10], 240000 M⁻¹ s⁻¹; in [5], 1.01e+06 M⁻¹ s⁻¹; in [6], 832000 M⁻¹ s⁻¹; in [11], 318000 M⁻¹ s⁻¹. In assay [7], this molecule had an on-rate constant (kon) of 681000 M⁻¹ s⁻¹.

The koff is the rate constant with which the complex falls apart. A higher koff goes with fast dissociation. In general, kon refers to the second-order rate constant of association.
